Laboratory results taken from patent US20250074964A1 (Ambio, Inc., priority 2023, published 2025).
Starred links: 1 amine or outer side, 2 acyl side, 3 side chain; linkers in the order of their positions; H or OH if unused. Non-standard residues stand in square brackets, D forms with d. Residues, ends and D or L forms follow the SMILES beside them. Groups on a side chain read outwards from the residue. No end group written: not given here. *: point of attachment. (CH2)18‑OH = polymethylene chain of 18 CH2 units ending in OH (m = 18), OCCCCCCCCCCCCCCCCCC*; C18 diacid = O=C(O)CCCCCCCCCCCCCCCCC(=O)*; γGlu = O=C(O)[C@H](CCC(=O)[*:2])N[*:1]; Dap = NC[C@H](N)C(=O)O; AEEA = NCCOCCOCC(=O)O; Aib = CC(C)(N)C(=O)O

B1: APi3710 (peptide)
peptide: HXEGTFTSDVSSXLEGQAAKEFIAWLVRGRG
modifications: GLP-1 numbering (first residue is Xaa7): Aib-ψ[CH2NH] at Xaa8 (reduced peptide bond between Aib and the next residue); Aib at Xaa19; ε-amino group of Lys26 substituted with AEEA-AEEA-γ-Glu-(CH2)m-OH, m is 18
B2: APi3711 (peptide)
peptide: HXEGTFTSDVSSXLEGQAAKEFIAWLVRGRG
modifications: GLP-1 numbering (first residue is Xaa7): Aib at Xaa8 and Xaa19; ε-amino group of Lys26 substituted with AEEA-AEEA-γ-Glu-(CH2)m-OH, m is 18

Tests used:
[1] = target: T1, GLP-1R (Homo sapiens, UniProt P43220); assay: Cell-Based Tag-Lite GLP-1R Receptor Binding FRET Assay
T1 construct: purchased
T1 sequence (P43220 24-463): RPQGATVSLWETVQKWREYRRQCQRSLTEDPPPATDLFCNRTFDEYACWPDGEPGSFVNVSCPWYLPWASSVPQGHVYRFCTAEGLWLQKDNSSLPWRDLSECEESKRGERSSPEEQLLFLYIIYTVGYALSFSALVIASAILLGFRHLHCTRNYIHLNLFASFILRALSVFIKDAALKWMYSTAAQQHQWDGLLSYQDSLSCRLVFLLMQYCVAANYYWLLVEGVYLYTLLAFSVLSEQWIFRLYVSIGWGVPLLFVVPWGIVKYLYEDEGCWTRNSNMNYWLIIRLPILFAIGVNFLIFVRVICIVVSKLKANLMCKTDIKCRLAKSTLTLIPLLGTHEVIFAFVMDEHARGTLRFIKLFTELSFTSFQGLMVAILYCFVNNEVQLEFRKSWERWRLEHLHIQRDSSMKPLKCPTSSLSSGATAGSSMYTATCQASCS

[2] = target: human GLP-1R (constitutively expressed on recombinant HEK293 CRE-luciferase reporter cells) (human) (UniProt P43220); assay: cell-based or functional assay
Sequence of human GLP-1R (constitutively expressed on recombinant HEK293 CRE-luciferase reporter cells) (human) (P43220 24-463): as above

[3] = target: human GLP-1R (constitutively expressed on recombinant HEK293 CRE-luciferase reporter cells) (human, UniProt P43220 24-463); assay: cell-based or functional assay
[4] = target: GLP-1R on Tag-Lite Glucagon GLP-1 labeled cells; assay: Tag-Lite GLP-1R binding FRET competition assay on cells, with 2% HSA; competitor: red agonist
Sequence of GLP-1R on Tag-Lite Glucagon GLP-1 labeled cells (P43220 24-463): as above

[5] = target: GLP-1R on Tag-Lite Glucagon GLP-1 labeled cells; assay: Tag-Lite GLP-1R binding FRET competition assay on cells, absence of HSA; competitor: red agonist

Molecule	IC50 ([1]; absence of HSA) [µM]	IC50 ([1]; with 2% HSA) [µM]	biological IC50, CRE-luciferase reporter assay [2] [nM]	biological IC50, CRE-luciferase reporter assay [3] [nM]	IC50 [4] [µM]	IC50 [5] [µM]
CC[C@H](C)[C@H](NC(=O)[C@H](Cc1ccccc1)NC(=O)[C@H](CCC(=O)O)NC(=O)[C@H](CCCCNC(=O)COCCOCCNC(=O)COCCOCCNC(=O)CC[C@H](NC(=O)CCCCCCCCCCCCCCCCC(=O)O)C(=O)O)NC(=O)[C@H](C)NC(=O)[C@H](C)NC(=O)[C@H](CCC(N)=O)NC(=O)CNC(=O)[C@H](CCC(=O)O)NC(=O)C(C)(C)NC(=O)[C@H](Cc1ccc(O)cc1)NC(=O)[C@H](CO)NC(=O)[C@H](CO)NC(=O)[C@@H](NC(=O)[C@H](CC(=O)O)NC(=O)[C@H](CO)NC(=O)[C@@H](NC(=O)[C@H](Cc1ccccc1)NC(=O)[C@@H](NC(=O)CNC(=O)[C@H](CCC(=O)O)NC(=O)C(C)(C)NC(=O)[C@@H](N)Cc1c[nH]cn1)[C@@H](C)O)[C@@H](C)O)C(C)C)C(=O)N[C@@H](C)C(=O)N[C@@H](Cc1c[nH]c2ccccc12)C(=O)N[C@@H](CC(C)C)C(=O)N[C@H](C(=O)NCC(=O)NCC(=O)N1CCC[C@H]1C(=O)N[C@@H](CO)C(=O)N[C@@H](CO)C(=O)NCC(=O)N[C@@H](C)C(=O)N1CCC[C@H]1C(=O)N1CCC[C@H]1C(=O)N1CCC[C@H]1C(=O)N[C@@H](CO)C(N)=O)C(C)C [APi3713] (H-H[Aib]EGTFTSDVSSY[Aib]EGQAAK([AEEA-AEEA-γGlu-C18 diacid])EFIAWLVGGPSSGAPPPS-NH2; N-terminus assumed)	1.59	95.9				
semaglutide (peptide)			0.4			
liraglutide (peptide)			0.03			
H[Aib]EGTFTSDVSS[Aib]LEGQAAK([AEEA-AEEA-γGlu-(CH2)18‑OH])EFIAWLVRG[Dap]G [APi3712]				~0.66	179	1.7
Y[Aib]EGTFTSDVSS[Aib]LEGQAAK([AEEA-AEEA-γGlu-(CH2)18‑OH])EFIAWLVRGRG [APi3709]				~5.4	129	2.48
B1					809	4.08
B2				~0.66	77.8	0.898
H[Aib]EGTFTSDVSSY[Aib]EGQAAK([AEEA-AEEA-γGlu-(CH2)18‑OH])EFIAWLVGGPSSGAPPPS-NH2 [APi3713]				~0.57	95.9	1.59
